Assay results reported in patent US20240034774A1 (Gilead, published 2024).
Changes are numbered by the printed parent chain.

B1: 1.35.36-1 (antibody, human IgG1, kappa)
heavy: QVQLVQSGAEVKKPGASVRVSCKASGYNIRDYFMHWWRQAPGQGLQWVGWINPKTGQPNNPRQFQGRVTMTRHASWDFDTFSFYMDLSRLRSDDTATYFCARQRTDYWDFDVWGQGTMVTVSSASTKGPSVFPLAPSSKSTSGGTAALGCLVKDYFPEPVTVSWNSGALTSGVHTFPAVLQSSGLYSLSSVVTVPSSSLGTQTYICNVNHKPSNTKVDKKVEPKSCDKTHTCPPCPAPELLAGPDVFLFPPKPKDTLMISRTPEVTCVVVDVSHEDPEVKFNWYVDGVEVHNAKTKPREEQYNSTYRVVSVLTVLHQDWLNGKEYKCKVSNKALPLPEEKTISKAKGQPREPQVYTLPPSREEMTKNQVSLTCLVKGFYPSDIAVEWESNGQPENNYKTTPPVLDSDGSFFLYSKLTVDKSRWQQGNVFSCSVLHEALHSHYTQKSLSLSPGK
light: DIQMTQSPSSLSASVGDRVTITCQANGYLNWYQQKPGKAPKLLIYDGSNLETGVPSRFSGSRWGQEYTLTISSLQPEDIATYFCQVYEFVTPGTNLDIKRTVAAPSVFIFPPSDEQLKSGTASVVCLLNNFYPREAKVQWKVDNALQSGNSQESVTEQDSKDSTYSLSSTLTLSKADYEKHKVYACEVTHQGLSSPVTKSFNRGEC
B2: 1.36.36-1 (antibody, human IgG1, kappa)
heavy: B1 heavy with F83A
light: B1 light
B3: 1.31.36-1 (antibody, human IgG1, kappa)
heavy: B1 heavy with K12T, K23E, M34I, T69S, M70L, S88K, R89A, T105S, Q115S, M118Q
light: B1 light
B4: 1.32.36-1 (antibody, human IgG1, kappa)
heavy: B1 heavy with K12T, K23E, M34I, T69S, M70L, S88K, R89A, T97V, Q115S, M118Q
light: B1 light
B5: 1.33.36-1 (antibody, human IgG1, kappa)
heavy: B1 heavy with M34I, M70L, S88K, R89A, T105S, Q115S, M118Q
light: B1 light
B6: 1.34.36-1 (antibody, human IgG1, kappa)
heavy: B1 heavy with M34I, M70L, S88K, R89A, T97V, Q115S, M118Q
light: B1 light
B7: 1.35.35-1 (antibody, human IgG1, kappa, V domains shown)
VH: QVQLVQSGAEVKKPGASVRVSCKASGYNIRDYFMHWWRQAPGQGLQWVGWINPKTGQPNNPRQFQGRVTMTRHASWDFDTFSFYMDLSRLRSDDTATYFCARQRTDYWDFDVWGQGTMVTVSS
VL: DIQMTQSPSSLSASVGDRVTITCQANGYLNWYQQKPGKAPKLLIYDGSNLETGVPSRFSGSRWGQEYTLTISSLQPEDIATYFCQVYEFVGPGTNLDIKR
B8: 1.36.35-1 (antibody, human IgG1, kappa, V domains shown)
VH: B7 VH with F83A
VL: B7 VL
B9: Antibody A-3 (antibody, human IgG1, kappa)
heavy: QVQLLQSGAAVTKPGASVRVSCEASGYNIRDYFIHWWRQAPGQGLQWVGWINPKTGQPNNPRQFQGRVSLTRHASWDFDTFSFYMDLKALRSDDTAVYFCARQRSDYWDFDVWGSGTQVTVSSASTKGPSVFPLAPSSKSTSGGTAALGCLVKDYFPEPVTVSWNSGALTSGVHTFPAVLQSSGLYSLSSVVTVPSSSLGTQTYICNVNHKPSNTKVDKKVEPKSCDKTHTCPPCPAPELLGGPDVFLFPPKPKDTLMISRTPEVTCVVVDVSHEDPEVKFNWYVDGVEVHNAKTKPREEQYNSTYRVVSVLTVLHQDWLNGKEYKCKVSNKALPAPEEKTISKAKGQPREPQVYTLPPSREEMTKNQVSLTCLVKGFYPSDIAVEWESNGQPENNYKTTPPVLDSDGSFFLYSKLTVDKSRWQQGNVFSCSVLHEALHSHYTQKSLSLSPGK
light: DIQMTQSPSSLSASVGDTVTITCQANGYLNWYQQRRGKAPKLLIYDGSKLERGVPSRFSGRRWGQEYNLTINNLQPEDIATYFCQVYEFVVPGTRLDLKRTVAAPSVFIFPPSDEQLKSGTASVVCLLNNFYPREAKVQWKVDNALQSGNSQESVTEQDSKDSTYSLSSTLTLSKADYEKHKVYACEVTHQGLSSPVTKSFNRGEC
B10: Antibody A-4 (antibody, human IgG1, kappa)
heavy: B9 heavy with G242A
light: B9 light
B11: Antibody A-5 (antibody, human IgG1, kappa)
heavy: B9 heavy with A336L
light: B9 light
B12: Antibody A-2 (antibody, human IgG1, kappa)
heavy: B9 heavy with G242A, A336L, L434M, S440N
light: B9 light
B13: Antibody A-6 (antibody, human IgG1, kappa)
heavy: B9 heavy with D245S, F249L, R298P, Y306L, V311I, E338I, P402L
light: B9 light

The binders below were run against BSA (UniProt P02769 25-607) (assay: single-point ELISA, BSA control).

Binder	ELISA A450
B1	0.06 A450
B2	0.06 A450
B3	0.06 A450
B4	0.06 A450
B5	0.06 A450
B6	0.07 A450
B7	0.06 A450
B8	0.06 A450

The binders below were run against gp120 SHIV SF162 P3 (SHIV SF162 P3) (assay: single-point ELISA at EC50 conc. of A-1).

Binder	ELISA A450
B1	0.56 A450
B2	0.14 A450
B3	0.93 A450
B4	0.62 A450
B5	0.88 A450
B6	0.77 A450
B7	0.42 A450
B8	0.16 A450

The binders below were run against gp120 CAAN (HIV (CAAN)) (assay: single-point ELISA at EC50 conc. of A-1).

Binder	ELISA A450
B1	0.67 A450
B2	0.34 A450
B3	0.9 A450
B4	0.64 A450
B5	0.82 A450
B6	0.71 A450
B7	0.67 A450
B8	0.36 A450

What follows are binders tested against gp120 Bal (HIV (Bal)) (assay: single-point ELISA at EC50 conc. of A-1).

Binder	ELISA A450
B1	0.85 A450
B2	1.12 A450
B3	1.06 A450
B4	0.92 A450
B5	0.94 A450
B6	0.94 A450
B7	0.88 A450
B8	0.89 A450

The binders below were run against HIV-1 envelope glycoprotein gp120 of viral isolate 92US712 (HIV-1) (assay: cell-based or functional assay).

Binder	ADCC EC50, NK Donor 1	ADCC EC50, NK Donor 2	ADCC EC50, NK Donor 3	ADCC Emax, NK Donor 1	ADCC Emax, NK Donor 2	ADCC Emax, NK Donor 3
B9	0.07 µg/mL	0.08 µg/mL	0.2 µg/mL	77%	59%	67%
B10	0.2 µg/mL	0.13 µg/mL	0.4 µg/mL	78%	61%	64%
B11	0.19 µg/mL	0.08 µg/mL	0.09 µg/mL	79%	61%	66%
B12	0.18 µg/mL	0.08 µg/mL	0.2 µg/mL	76%	60%	60%
B13	0.27 µg/mL	0.54 µg/mL	0.18 µg/mL	68%	54%	51%

These binders were tested against HIV-1 envelope glycoprotein gp120 of viral isolate 92US657 (HIV-1) (assay: cell-based or functional assay).

Binder	ADCC EC50, NK Donor 1	ADCC EC50, NK Donor 2	ADCC EC50, NK Donor 3	ADCC Emax, NK Donor 1	ADCC Emax, NK Donor 2	ADCC Emax, NK Donor 3
B9	0.68 µg/mL	0.67 µg/mL	1.39 µg/mL	49%	49%	56%
B10	0.6 µg/mL	1.21 µg/mL	1.64 µg/mL	52%	53%	50%
B11	0.57 µg/mL	0.83 µg/mL	0.76 µg/mL	58%	61%	61%
B12	0.54 µg/mL	0.81 µg/mL	1.13 µg/mL	59%	51%	56%
B13	3.93 µg/mL	1.21 µg/mL	3.21 µg/mL	54%	53%	52%
